The source of these data is US20250270584A1, “Gene editing to provide insect resistance in crops” (The Regents of the University of California, priority 2022, published 2025).

The experiment concerns the target 6His-CaM7 (Arabidopsis thaliana), P59220. In words: ITC at 25 C, peptide titrated into 6His-CaM7, 1 mM Ca2+.

B1: CBD peptide (peptide)
peptide: DQQQNHDSSSMRSTRLQRFLSL
modifications: not checked
With B1, the stoichiometry (peptide per CaM7) turned out to be 1.
